From the supplement of paper PMC10126150
± gives the standard deviation of the averaged measurements.

Tested on: ATP
Experiment: switch fluorescence ratio, 500 uM ATP over buffer (Cy3 cluster intensity, sum of 5 cycles each) (fold (ratio)); higher = stronger signal-on switching upon ATP binding; sequences stand for … in TCGTCGGCAGCGTCAGATGTGTATAAGAGACAGTTTTTTTTTTTTTTTTTTTTTTTTT…TC
Settings: aptamer strand: ATP DNA aptamer (quencher-CACCTGGGGGAGTATTGCGGAGGAAGG + anchor), 100 nM annealed; ATP concentration: 500 uM
How it was run: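 Between each of five buffer/ATP cycles, the flow-cell was stripped with NaOH and re-annealed. Each cycle imaged Cy3-labelled switching-strand clusters, annealed to 100 nM quencher-labelled ATP aptamer on a modified Illumina MiSeq flow-cell, first in selection buffer and then after 15 min with 500 uM ATP at 22 °C. The fluorescence ratio is summed target-cycle over summed buffer-cycle Cy3 intensity per cluster, averaged per switch-domain sequence, with clusters outside 100-1000 RFU excluded.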
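Further: ATP exposure 15 min at 22 °C before imaging.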

Row | Sequence | switch fluorescence ratio
1 | GCTGTATATT | 0.993 ± 0.0017
2 | ATGGATATGG | 1 ± 0.026
3 | TCCGATGGGT | 1.145 ± 0.0095
4 | TTGCTAGTAT | 1.0001 ± 0.00075
5 | GGGGGCGGCT | 1.03 ± 0.056
6 | GTTTTTATTG | 0.992 ± 0.042
7 | TTTTCGAAAT | 1.01 ± 0.024
8 | AGAATGTTGC | 0.9482 ± 0.0035
9 | GCATAATGAT | 1 ± 0.022
10 | CCAGGGGTGG | 1.02 ± 0.064
11 | CTGATGGGTG | 1.01 ± 0.013
12 | TGGTTTTTAG | 1.05 ± 0.033
13 | ACTGTGTACA | 0.9824 ± 0.0024
14 | AAGAGAAAGT | 0.998 ± 0.028
15 | GTTGGAGGAG | 0.992 ± 0.026
16 | TGAGAGTTTA | 1.024 ± 0.0062
17 | TCTTTATATG | 0.9989 ± 0.0033
18 | GGAACGGGGT | 1.01 ± 0.048
19 | GCGACGAAGG | 1.02 ± 0.012
20 | TTGAATTGCT | 0.986 ± 0.032
21 | CAATAGAGGG | 0.991 ± 0.033
22 | TTTTCTTGCC | 1.09 ± 0.11
23 | GCGATGGGGC | 1.04 ± 0.039
24 | TTGAGATTTT | 0.996 ± 0.023
25 | TAAAGGGGGG | 1.01 ± 0.047

Row | Sequence | switch fluorescence ratio
26 | TATTAGTACT | 0.989 ± 0.011
27 | TTTTTTGAGC | 0.996 ± 0.031
28 | AGGGCTGCTA | 0.996 ± 0.046
29 | TTCTTGGCGG | 1 ± 0.07
30 | ATAAGTTAGT | 0.989 ± 0.016
31 | TAAAGTAAGT | 1.008 ± 0.01
32 | TTAAGAGTTA | 1.006 ± 0.01
33 | TCTTTACAGG | 1.09 ± 0.067
34 | GGGGAATCCT | 1.036 ± 0.0077
35 | TGTTTGGGGA | 0.997 ± 0.018
36 | CACCCCGCAC | 3.46 ± 0.48
37 | GCTTGAAGTT | 0.991 ± 0.068
38 | GAACAACATG | 1.03 ± 0.051
39 | TTTTGAGTAT | 0.967 ± 0.035
40 | CGACATATCC | 1.12 ± 0.027
41 | GCTCCTGTGC | 1.1992 ± 0.00049
42 | GTTTGCAAGA | 1.01 ± 0.028
43 | TTTGCCTCGG | 0.984 ± 0.031
44 | TGAATTTTAG | 0.991 ± 0.01
45 | TTTTCCAATA | 1.52 ± 0.13
46 | GTTACAAGGG | 0.9883 ± 0.0092
47 | TTGCATGTTG | 0.9886 ± 0.0033
48 | TGCATTGGGC | 1.03 ± 0.013
49 | TTTAATGTAT | 1.19 ± 0.3
50 | ACTCGGGTAG | 1.028 ± 0.0056

Row | Sequence | switch fluorescence ratio
51 | TTATTACCTA | 1.06 ± 0.049
52 | GAAGTAGGTC | 1.02 ± 0.041
53 | ACGTAAAAAG | 1.01 ± 0.065
54 | TGCGAAAGAT | 1.05 ± 0.086
55 | CAATAGCGGT | 1.05 ± 0.02
56 | TGTTCTAAAG | 0.997 ± 0.025
57 | GTGTGTTTTT | 0.975 ± 0.053
58 | GGTGATACGG | 1.012 ± 0.0022
59 | ACTTACTTT | 1.16 ± 0.021
60 | ACTTTTTTGA | 1.005 ± 0.0056
61 | CGTGGGTCCA | 1.024 ± 0.01
62 | ATAGGCATGC | 1.06 ± 0.067
63 | GATGGGAAAT | 1 ± 0.012
64 | GGGTGTATGG | 0.981 ± 0.012
65 | TAGGTTGGGG | 1.005 ± 0.0065
66 | GGTGGGACAA | 0.966 ± 0.042
67 | GCTGCGGGGA | 0.9929 ± 0.0071
68 | ATGTTTCGC | 0.999 ± 0.045
69 | TTGAAGTAAG | 0.994 ± 0.019
70 | AACGGGGGCA | 0.925 ± 0.025
71 | ATTGTAGGGT | 0.972 ± 0.021
72 | GTACCGGGCA | 1.02 ± 0.026
73 | CATTTTATAA | 0.999 ± 0.014
74 | CGCTATAAGG | 1.03 ± 0.017
75 | AGGAATCGGG | 0.993 ± 0.047

Row | Sequence | switch fluorescence ratio
76 | TTAATTATGG | 1 ± 0.034
77 | ACGTAACATA | 1.22 ± 0.017
78 | TCGGGCAGGG | 1.003 ± 0.0044
79 | AAAATTTTGT | 1 ± 0.021
80 | GGGTATAGTT | 0.992 ± 0.024
81 | ATCGGAGCCA | 1.02 ± 0.047
82 | GGGGGAATGG | 1.11 ± 0.17
83 | TCGGGTAAAA | 1.01 ± 0.028
84 | TAGGCATTTT | 1 ± 0.023
85 | CTATTAGGGC | 1.04 ± 0.0026
86 | TCTAAAAAGG | 0.998 ± 0.025
87 | GTTACTGAGG | 1.031 ± 0.0017
88 | CTTTTTATTT | 1.14 ± 0.22
89 | CAGGGTAACT | 1.04 ± 0.066
90 | GATCAAATAT | 1.01 ± 0.0063
91 | CGGGAAGTGG | 0.996 ± 0.03
92 | TCGTTTTTAT | 0.983 ± 0.023
93 | AACAAGCCCA | 1.008 ± 0.0066
94 | ACAACGCGT | 0.982 ± 0.013
95 | GTAACCAATT | 1.01 ± 0.021
96 | GCATGTACTC | 3.36 ± 0.63
97 | AGGGTGGGGA | 1.01 ± 0.036
98 | GGCAAAACAG | 0.996 ± 0.032
99 | CGGGAACTGT | 0.964 ± 0.07
100 | TTGTGTTGG | 1.03 ± 0.019

Row | Sequence | switch fluorescence ratio
101 | CCGTTGGGGT | 1.11 ± 0.13
102 | GTTTTGTTCC | 1.019 ± 0.0041
103 | TGTAGGGGGG | 0.973 ± 0.034
104 | CACGGGATGG | 1.05 ± 0.026
105 | GCGAATGCTG | 1.006 ± 0.0089
106 | CGCGATCGCG | 0.994 ± 0.055
107 | ATAGCTAACT | 1.02 ± 0.022
108 | GGGATAGGAA | 0.993 ± 0.03
109 | GACAGGGATT | 1.1 ± 0.15
110 | AACTCGGATC | 1.01 ± 0.042
111 | TTTCAAATGG | 0.975 ± 0.028
112 | GGTCGTGCGC | 0.996 ± 0.029
113 | AAGGGGCTTA | 0.961 ± 0.013
114 | GGTGTTCAGC | 0.981 ± 0.04
115 | TATGGGCCTA | 0.971 ± 0.053
116 | GGGAAGTGTG | 0.979 ± 0.024
117 | GGTGCGTTGG | 1.03 ± 0.042
118 | AAATTTGCGT | 0.987 ± 0.02
119 | CTAAAAACTA | 0.978 ± 0.013
120 | TTCGTCTTTT | 0.98 ± 0.016
121 | TCGTTCGAGG | 0.958 ± 0.013
122 | TACTATTGGA | 1.01 ± 0.021
123 | AAGCGAGGGC | 1.06 ± 0.035
124 | CTAGGGGTAC | 1.16 ± 0.17
125 | TGGTTGGAAG | 0.987 ± 0.016

Row | Sequence | switch fluorescence ratio
126 | GATGGGGCTC | 0.979 ± 0.024
127 | TTGATGTCAA | 0.999 ± 0.056
128 | TAGGCCTTAC | 1.43 ± 0.54
129 | TATTGTTTTG | 0.986 ± 0.033
130 | GATGATGGGG | 0.998 ± 0.044
131 | ATATGGTTGG | 0.958 ± 0.016
132 | GGCTTTTTTG | 0.9954 ± 0.0081
133 | GGTTAAGGGA | 0.982 ± 0.024
134 | TGGGGCTATT | 1.02 ± 0.045
135 | TAATCGTGGG | 1.02 ± 0.011
136 | CGTGTGAGGT | 0.9972 ± 0.008
137 | ACGCGGCAGG | 1.02 ± 0.022
138 | ATGGGGTACA | 1.033 ± 0.0032
139 | TGGCGGTATA | 0.993 ± 0.012
140 | TTAAGATTTT | 0.9935 ± 0.0053
141 | CGGTATCCGT | 0.978 ± 0.062
142 | GCCTACTGTT | 0.9855 ± 0.0094
143 | GGGGTTCCGG | 0.941 ± 0.032
144 | CGAAGCTTAT | 2.74 ± 0.53
145 | ACTTTGGGCG | 0.932 ± 0.059
146 | TTATGTGAGA | 1.01 ± 0.044
147 | GTGGGGGCAT | 1 ± 0.041
148 | TCTGTATGTA | 1.01 ± 0.026
149 | CGGAAATTTG | 1.02 ± 0.032
150 | GAGGTTGGGG | 1.02 ± 0.059

Row | Sequence | switch fluorescence ratio
151 | TCAAGGTGTT | 1.15 ± 0.062
152 | TTCGAGGGGG | 1.01 ± 0.031
153 | AAGGGCTTAC | 1.135 ± 0.0058
154 | TTTGGTACAC | 1.01 ± 0.021
155 | GCTTATAATT | 0.991 ± 0.013
156 | TTATTAGGGT | 1 ± 0.022
157 | AATGGGGGCG | 0.9633 ± 0.0089
158 | TATCATTGGG | 0.968 ± 0.029
159 | GAAAAAAGGC | 1.03 ± 0.032
160 | TCGTTTTAGT | 0.985 ± 0.014
161 | TAGTTTGGTT | 0.9887 ± 0.0052
162 | TTTTCAAGAC | 1.31 ± 0.28
163 | ATTCGCCTAG | 0.987 ± 0.012
164 | TGAAGGACCG | 0.952 ± 0.026
165 | GTTGGGGGG | 0.984 ± 0.041
166 | TCACCGCACG | 2.2 ± 0.36
167 | TTATGGTGCT | 0.945 ± 0.051
168 | AGTTACAGGG | 1.05 ± 0.019
169 | ACCTGTATTT | 1 ± 0.02
170 | GTCATCGAGT | 1.008 ± 0.0039
171 | TATGAGAGGC | 1.04 ± 0.035
172 | TTGGGGGAGC | 0.976 ± 0.018
173 | TGAAAGGGTA | 0.999 ± 0.022
174 | TCTCTGTAGG | 1.03 ± 0.037
175 | TAGTGGGGGC | 1.01 ± 0.044

Row | Sequence | switch fluorescence ratio
176 | ATCGTCATGG | 1.01 ± 0.012
177 | GTATGCGTGT | 1.04 ± 0.034
178 | GTCAGTCTGA | 0.9805 ± 0.003
179 | GGTCTTAACT | 0.967 ± 0.028
180 | TAGAGACGGA | 1.0278 ± 0.001
181 | TATTTAAAAC | 1.03 ± 0.021
182 | AAATTTTTAC | 1.02 ± 0.027
183 | CAAGGCTGCA | 1.04 ± 0.06
184 | TCAGGGGACG | 1 ± 0.025
185 | TTTGGTTGCC | 1.05 ± 0.085
186 | CTATGATTTA | 0.975 ± 0.027
187 | TTAGAGGTTA | 0.98609 ± 0.00054
188 | TAACAGTGGG | 1.02 ± 0.046
189 | TTATAAACCT | 1.99 ± 1.4
190 | ATTCTTTACG | 1.03 ± 0.015
191 | TTTGAATTCA | 1.19 ± 0.22
192 | TTTGCTTAAC | 1.07 ± 0.13
193 | TTGCATGTTT | 1.15 ± 0.3
194 | GCTTATCCTG | 0.982 ± 0.041
195 | TTTTGGGCGG | 0.99 ± 0.022
196 | ATCTGCAACA | 1.62 ± 0.042
197 | AAAAACAAAA | 1.04 ± 0.065
198 | ATGATAAAAT | 1.11 ± 0.13
199 | TTTTTGACCT | 1.38 ± 0.24
200 | GCTCCTGAGG | 1.073 ± 0.0081
